The values that follow come from article PMC4447949, “Structures of the Ets Protein DNA-binding Domains of Transcription Factors Etv1, Etv4, Etv5, and Fev” (The Journal of Biological Chemistry, 2015).

Common to all, as to settings: protein: recombinant; tags: N-terminal His6 removed by TEV (leaves SM); blunt
Data set [1] addresses T1, Etv1 C416S (human, UniProt P50549 326-429, C416S). In words: EMSA; 0.1 nM probe; EMSA: 50 mM Tris-HCl pH 7.5, 50 mM NaCl, 2 mM MgCl2, 0.01% Tween 20, 5% glycerol, 1 h at room temperature; proteins reduced with 10 mM TCEP unless stated; 10% native PAGE.
In another data set the target is Etv4 Ets domain (human, UniProt P43268 338-470). In words: EMSA; 10 mM TCEP; probe 0.1 nM (Table 3) or 0.2 nM (Fig. 9); EMSA: 50 mM Tris-HCl pH 7.5, 50 mM NaCl, 2 mM MgCl2, 0.01% Tween 20, 5% glycerol, 1 h at room temperature; proteins reduced with 10 mM TCEP unless stated; 10% native PAGE. A general note: A gel shift assay detects complexes by their altered migration in electrophoresis.

Another data set addresses Etv5 Ets domain (human, UniProt P41161 365-462). Described as above.
For a further data set, the target named is Etv1 K379A (human, UniProt P50549 326-429, K379A). In words: EMSA; 2 nM and 0.1 nM probe; EMSA: 50 mM Tris-HCl pH 7.5, 50 mM NaCl, 2 mM MgCl2, 0.01% Tween 20, 5% glycerol, 1 h at room temperature; proteins reduced with 10 mM TCEP unless stated; 10% native PAGE.
For another data set, the target named is Etv1 Y397F (human, UniProt P50549 326-429, Y397F). In words: EMSA; 2 nM probe; undetectable or below regression threshold; EMSA: 50 mM Tris-HCl pH 7.5, 50 mM NaCl, 2 mM MgCl2, 0.01% Tween 20, 5% glycerol, 1 h at room temperature; proteins reduced with 10 mM TCEP unless stated; 10% native PAGE.
The target in a further data set is Etv1 S334E (human, UniProt P50549 326-429, S334E). Kind of data set: EMSA; 2 nM probe; 10 mM TCEP; saturates at 35% of probe; EMSA: 50 mM Tris-HCl pH 7.5, 50 mM NaCl, 2 mM MgCl2, 0.01% Tween 20, 5% glycerol, 1 h at room temperature; proteins reduced with 10 mM TCEP unless stated; 10% native PAGE.
A further data set has as its target Etv1 D387A (human, UniProt P50549 326-429, D387A). Kind of data set: EMSA; 2 nM probe; 10 mM TCEP; EMSA: 50 mM Tris-HCl pH 7.5, 50 mM NaCl, 2 mM MgCl2, 0.01% Tween 20, 5% glycerol, 1 h at room temperature; proteins reduced with 10 mM TCEP unless stated; 10% native PAGE.
The next data set deals with Etv1 R391A (human, UniProt P50549 326-429, R391A). The description is as above.
In another data set the target is Etv1 Y329S-P427S (human, UniProt P50549 326-429, Y329S;P427S). The data set is described as above.
For a further data set, the target named is Etv1 R394A (human, UniProt P50549 326-429, R394A). The data set is described as above.
The next data set deals with Etv1 Y396F (human, UniProt P50549 326-429, Y396F). The description is as above.
Data set [2] deals with Etv1 Ets domain WT (reduced monomer) (human, UniProt P50549 326-429). Described as above.
The target of another data set is Etv1 K404A (human, UniProt P50549 326-429, K404A). Kind of data set: EMSA; 2 nM probe; EMSA: 50 mM Tris-HCl pH 7.5, 50 mM NaCl, 2 mM MgCl2, 0.01% Tween 20, 5% glycerol, 1 h at room temperature; proteins reduced with 10 mM TCEP unless stated; 10% native PAGE.
The target in data set [3] is T1, Etv1 C416S. Described as above.
The next data set addresses Etv1 Y395F (human, UniProt P50549 326-429, Y395F). In words: EMSA; 2 nM probe; 10 mM TCEP; saturates at 60% of probe; EMSA: 50 mM Tris-HCl pH 7.5, 50 mM NaCl, 2 mM MgCl2, 0.01% Tween 20, 5% glycerol, 1 h at room temperature; proteins reduced with 10 mM TCEP unless stated; 10% native PAGE.

T1 sequence (P50549 326-429 C416S): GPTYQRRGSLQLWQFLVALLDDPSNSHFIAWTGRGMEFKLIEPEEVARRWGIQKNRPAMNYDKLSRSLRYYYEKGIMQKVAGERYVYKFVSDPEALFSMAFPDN
Chain of Etv1 D387A (P50549 326-429 D387A): as the sequence (P50549 326-429 C416S) above, with D62A, S91C counted along it
Chain of Etv1 Y329S-P427S (P50549 326-429 Y329S/P427S): as the sequence (P50549 326-429 C416S) above, with Y4S, S91C, P102S counted along it
Chain of Etv1 Y396F (P50549 326-429 Y396F): as the sequence (P50549 326-429 C416S) above, with Y71F, S91C counted along it
Chain of Etv1 K379A (P50549 326-429 K379A): as the sequence (P50549 326-429 C416S) above, with K54A, S91C counted along it
Chain of Etv1 R391A (P50549 326-429 R391A): as the sequence (P50549 326-429 C416S) above, with R66A, S91C counted along it
Chain of Etv1 Y395F (P50549 326-429 Y395F): as the sequence (P50549 326-429 C416S) above, with Y70F, S91C counted along it
Chain of Etv5 Ets domain (P41161 365-462): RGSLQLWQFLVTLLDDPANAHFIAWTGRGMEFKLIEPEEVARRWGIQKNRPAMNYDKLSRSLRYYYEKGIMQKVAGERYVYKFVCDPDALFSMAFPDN
Chain of Etv1 S334E (P50549 326-429 S334E): as the sequence (P50549 326-429 C416S) above, with S9E, S91C counted along it
Chain of Etv4 Ets domain (P43268 338-470): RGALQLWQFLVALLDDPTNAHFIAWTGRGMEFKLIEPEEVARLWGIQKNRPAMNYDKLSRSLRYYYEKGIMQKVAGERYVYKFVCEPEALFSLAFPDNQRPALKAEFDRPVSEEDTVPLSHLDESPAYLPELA
Chain of Etv1 K404A (P50549 326-429 K404A): as the sequence (P50549 326-429 C416S) above, with K79A, S91C counted along it
Chain of Etv1 Ets domain WT (reduced monomer) (P50549 326-429): as the sequence (P50549 326-429 C416S) above, with S91C counted along it
Chain of Etv1 Y397F (P50549 326-429 Y397F): as the sequence (P50549 326-429 C416S) above, with Y72F, S91C counted along it
Chain of Etv1 R394A (P50549 326-429 R394A): as the sequence (P50549 326-429 C416S) above, with R69A, S91C counted along it

B1: Etv1ALF/Etv1ALR EMSA probe (dsDNA)
DNA 1: ATCTCACCGGAAGTGTAGCA
DNA 2: TGCTACACTTCCGGTGAGAT
What is called Kd is the equilibrium constant for the complex coming apart. With B1, the Kd with Etv1 C416S [1] stood at 0.26 ± 0.06 nM; with Etv4 Ets domain, 0.34 ± 0.066 nM; with Etv5 Ets domain, 1.16 ± 0.11 nM; in the data set with Etv1 S334E, 0.89 ± 0.32 nM; with Etv1 D387A, 0.17 ± 0.02 nM; in the data set with Etv1 R391A, 11.8 ± 1.48 nM. The Kd with Etv1 Y329S-P427S is 0.25 ± 0.026 nM; with Etv1 R394A, 276 ± 62.7 nM; with Etv1 Y396F it was 2640 ± 935 nM; in [2], 0.27 ± 0.028 nM; with Etv1 C416S [3] it was 0.46 ± 0.06 nM; in the data set with Etv1 Y395F, 0.23 ± 0.05 nM. Besides, the binding result with Etv1 K379A, with Etv1 Y397F and with Etv1 K404A was “no binding” each time.
